From paper doi:10.1101/2021.03.11.435010 (bioRxiv, 2021)
One block for each binder: values may come before it.

B3: MED20 (natural protein)
chain: MGVTCVSQMPVAEGKSVQQTVELLTRKLEMLGAEKQGTFCVDCETYHTAASTLGSQGQTGKLMYVMHNSEYPLSCFALFENGPCLIADTNFDVLMVKLKGFFQSAKASKIETRGTRYQYCDFLVKVGTVTMGPSARGISVEVEYGPCVVASDCWSLLLEFLQSFLGSHTPGAPAVFGNRHDAVYGPADTMVQYMELFNKIRKQQQVPVAGIR
B5: MED27 (natural protein)
chain: MADVINVSVNLEAFSQAISAIQALRSSVSRVFDCLKDGMRNKETLEGREKAFIAHFQDNLHSVNRDLNELERLSNLVGKPSENHPLHNSGLLSLDPVQDKTPLYSQLLQAYKWSNKLQYHAGLASGLLNQQSLKRSANQMGVSAKRRPKAQPTTLVLPPQYVDDVISRIDRMFPEMSIHLSRPNGTSAMLLVTLGKVLKVIVVMRSLFIDRTIVKGYNENVYTEDGKLDIWSKSNYQVFQKVTDHATTALLHYQLPQMPDVVVRSFMTWLRSYIKLFQAPCQRCGKFLQDGLPPTWRDFRTLEAFHDTCRQ
B7: MED28 (natural protein)
chain: MAAPLGGMFSGQPPGPPQAPPGLPGQASLLQAAPGAPRPSSSTLVDELESSFEACFASLVSQDYVNGTDQEEIRTGVDQCIQKFLDIARQTECFFLQKRLQLSVQKPEQVIKEDVSELRNELQRKDALVQKHLTKLRHWQQVLEDINVQHKKPADIPQGSLAYLEQASANIPAPLKPT

Tests used:
Experiment in all cases: cryo-EM structure
TFIIB = target: T1, TFIIB (human, UniProt Q00403 1-316)
T1 sequence: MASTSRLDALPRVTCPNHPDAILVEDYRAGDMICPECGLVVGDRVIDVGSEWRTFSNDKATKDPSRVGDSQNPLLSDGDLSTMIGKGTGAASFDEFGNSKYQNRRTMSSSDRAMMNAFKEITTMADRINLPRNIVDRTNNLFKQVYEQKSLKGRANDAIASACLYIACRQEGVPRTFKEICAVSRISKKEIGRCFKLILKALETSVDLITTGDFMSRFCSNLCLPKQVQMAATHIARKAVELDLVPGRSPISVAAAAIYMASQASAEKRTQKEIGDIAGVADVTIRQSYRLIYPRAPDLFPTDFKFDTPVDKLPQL

MED8 = target: T2, MED8 (human, UniProt Q96G25 1-268)
T2 sequence: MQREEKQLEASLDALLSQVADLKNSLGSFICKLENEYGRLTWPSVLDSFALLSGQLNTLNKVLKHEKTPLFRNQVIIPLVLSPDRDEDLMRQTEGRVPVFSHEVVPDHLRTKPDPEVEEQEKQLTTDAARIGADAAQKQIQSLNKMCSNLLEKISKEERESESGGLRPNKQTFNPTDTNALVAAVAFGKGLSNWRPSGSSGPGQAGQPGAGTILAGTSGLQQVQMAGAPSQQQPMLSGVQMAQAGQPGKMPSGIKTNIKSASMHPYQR

MED20 = target: B3
MED27 = target: B5
MED28 = target: B7
MED30 = target: T3, MED30 (human, UniProt Q96HR3 1-178)
T3 sequence: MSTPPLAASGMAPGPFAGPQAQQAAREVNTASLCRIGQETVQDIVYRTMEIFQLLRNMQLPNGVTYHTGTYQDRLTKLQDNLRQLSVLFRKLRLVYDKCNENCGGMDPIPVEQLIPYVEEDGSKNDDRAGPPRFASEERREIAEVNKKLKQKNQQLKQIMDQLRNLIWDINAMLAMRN

MED14 = MED14 (human, UniProt O60244 1-1454)
MED17 = target: T4, MED17 (human, UniProt Q9NVC6 1-651)
T4 sequence: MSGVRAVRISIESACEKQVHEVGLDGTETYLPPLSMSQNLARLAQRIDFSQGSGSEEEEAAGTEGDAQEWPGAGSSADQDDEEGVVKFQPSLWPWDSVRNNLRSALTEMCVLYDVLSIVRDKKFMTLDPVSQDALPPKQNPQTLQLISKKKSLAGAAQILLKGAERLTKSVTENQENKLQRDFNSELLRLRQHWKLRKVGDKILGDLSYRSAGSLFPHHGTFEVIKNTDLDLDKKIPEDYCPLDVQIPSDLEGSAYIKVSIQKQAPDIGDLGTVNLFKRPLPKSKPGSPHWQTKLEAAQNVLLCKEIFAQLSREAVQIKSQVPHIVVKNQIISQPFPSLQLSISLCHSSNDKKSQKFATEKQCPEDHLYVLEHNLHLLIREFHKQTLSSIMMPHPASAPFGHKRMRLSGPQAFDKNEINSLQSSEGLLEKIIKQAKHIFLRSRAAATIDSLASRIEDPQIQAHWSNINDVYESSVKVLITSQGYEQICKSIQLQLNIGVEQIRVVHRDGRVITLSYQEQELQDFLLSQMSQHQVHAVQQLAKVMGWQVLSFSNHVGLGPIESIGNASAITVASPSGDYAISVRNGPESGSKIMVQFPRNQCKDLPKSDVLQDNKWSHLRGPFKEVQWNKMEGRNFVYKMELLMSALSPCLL

MED4 = target: T5, MED4 (human, UniProt Q9NPJ6 1-270)
T5 sequence: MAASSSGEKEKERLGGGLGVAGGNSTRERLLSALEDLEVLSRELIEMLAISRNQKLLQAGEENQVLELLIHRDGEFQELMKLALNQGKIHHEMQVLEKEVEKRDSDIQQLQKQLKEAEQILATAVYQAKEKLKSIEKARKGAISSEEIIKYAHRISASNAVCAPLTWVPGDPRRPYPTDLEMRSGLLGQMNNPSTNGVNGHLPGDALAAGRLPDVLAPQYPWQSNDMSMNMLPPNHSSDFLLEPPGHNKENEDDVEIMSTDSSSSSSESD

MED7 = target: T6, MED7 (human, UniProt O43513 1-233)
T6 sequence: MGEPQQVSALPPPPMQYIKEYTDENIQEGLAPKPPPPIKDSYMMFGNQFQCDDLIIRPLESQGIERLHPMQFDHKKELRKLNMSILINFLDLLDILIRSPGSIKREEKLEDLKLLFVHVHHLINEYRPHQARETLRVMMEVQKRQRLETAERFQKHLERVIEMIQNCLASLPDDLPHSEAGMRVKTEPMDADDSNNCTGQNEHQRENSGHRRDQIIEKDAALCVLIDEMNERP

Chain of MED14 (O60244 whole entry): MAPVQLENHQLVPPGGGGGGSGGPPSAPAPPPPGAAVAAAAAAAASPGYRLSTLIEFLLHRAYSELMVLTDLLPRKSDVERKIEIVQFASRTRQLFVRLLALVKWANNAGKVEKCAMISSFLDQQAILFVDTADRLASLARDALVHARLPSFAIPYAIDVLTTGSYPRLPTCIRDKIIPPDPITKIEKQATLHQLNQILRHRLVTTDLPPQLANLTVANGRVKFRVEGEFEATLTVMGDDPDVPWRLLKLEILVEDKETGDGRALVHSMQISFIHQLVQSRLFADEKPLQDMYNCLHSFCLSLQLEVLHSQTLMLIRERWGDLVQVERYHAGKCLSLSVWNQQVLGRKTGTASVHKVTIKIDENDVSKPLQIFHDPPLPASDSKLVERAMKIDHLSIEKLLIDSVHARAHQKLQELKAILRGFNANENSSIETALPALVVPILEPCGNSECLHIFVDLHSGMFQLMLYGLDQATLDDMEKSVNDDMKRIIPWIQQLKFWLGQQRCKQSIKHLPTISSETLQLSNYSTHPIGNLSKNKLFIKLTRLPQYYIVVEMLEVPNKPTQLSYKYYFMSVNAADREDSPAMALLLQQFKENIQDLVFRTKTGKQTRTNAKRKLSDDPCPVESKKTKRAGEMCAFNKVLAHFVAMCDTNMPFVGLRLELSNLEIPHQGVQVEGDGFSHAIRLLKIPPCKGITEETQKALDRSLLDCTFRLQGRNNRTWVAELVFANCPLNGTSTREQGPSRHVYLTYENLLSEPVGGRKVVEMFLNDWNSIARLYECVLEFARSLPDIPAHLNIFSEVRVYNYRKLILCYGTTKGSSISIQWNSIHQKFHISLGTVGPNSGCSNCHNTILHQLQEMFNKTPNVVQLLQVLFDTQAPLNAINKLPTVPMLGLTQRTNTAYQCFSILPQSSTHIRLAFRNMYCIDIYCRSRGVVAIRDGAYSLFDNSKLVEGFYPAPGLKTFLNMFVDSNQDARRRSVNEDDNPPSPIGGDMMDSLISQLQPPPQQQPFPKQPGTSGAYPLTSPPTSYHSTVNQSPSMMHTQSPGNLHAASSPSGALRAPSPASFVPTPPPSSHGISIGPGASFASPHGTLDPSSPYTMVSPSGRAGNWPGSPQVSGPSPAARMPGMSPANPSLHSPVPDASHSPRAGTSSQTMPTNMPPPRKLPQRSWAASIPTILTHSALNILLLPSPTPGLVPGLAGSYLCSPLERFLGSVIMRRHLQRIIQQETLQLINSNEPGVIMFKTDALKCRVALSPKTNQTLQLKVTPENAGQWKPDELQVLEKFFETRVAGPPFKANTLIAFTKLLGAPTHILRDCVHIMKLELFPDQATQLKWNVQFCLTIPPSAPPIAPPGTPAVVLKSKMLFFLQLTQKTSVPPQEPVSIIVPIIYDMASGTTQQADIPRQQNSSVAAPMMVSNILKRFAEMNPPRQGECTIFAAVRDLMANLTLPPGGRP

binding result (TFIIB): binds
binding result (MED8): binds
binding result (MED20): binds
B1: MED18 (natural protein)
chain: MEAPPVTMMPVTGGTINMMEYLLQGSVLDHSLESLIHRLRGLCDNMEPETFLDHEMVFLLKGQQASPFVLRARRSMDRAGAPWHLRYLGQPEMGDKNRHALVRNCVDIATSENLTDFLMEMGFRMDHEFVAKGHLFRKGIMKIMVYKIFRILVPGNTDSTEALSLSYLVELSVVAPAGQDMVSDDMKNFAEQLKPLVHLEKIDPKRLM

binding result (MED28): binds
binding result (MED30): binds
B4: MED11 (natural protein)
chain: MATYSLANERLRALEDIEREIGAILQNAGTVILELSKEKTNERLLDRQAAAFTASVQHVEAELSAQIRYLTQVATGQPHEGSSYSSRKDCQMALKRVDYARLKLSDVARTCEQMLEN

binding result (MED14): binds
binding result (MED4): binds
binding result (MED7): binds
B6: MED31 (natural protein)
chain: MAAAVAMETDDAGNRLRFQLELEFVQCLANPNYLNFLAQRGYFKDKAFVNYLKYLLYWKDPEYAKYLKYPQCLHMLELLQYEHFRKELVNAQCAKFIDEQQILHWQHYSRKRMRLQQALAEQQQQNNTSGK

The remaining lines, values behind:

B2: MED6 (natural protein)
chain: MAAVDIRDNLLGISWVDSSWIPILNSGSVLDYFSERSNPFYDRTCNNEVVKMQRLTLEHLNQMVGIEYILLHAQEPILFIIRKQQRQSPAQVIPLADYYIIAGVIYQAPDLGSVINSRVLTAVHGIQSAFDEAMSYCRYHPSKGYWWHFKDHEEQDKVRPKAKRKEEPSSIFQRQRVDALLLDLRQKFPPKFVQLKPGEKPVPVDQTKKEAEPIPETVKPEEKETTKNVQQTVSAKGPPEKRMRLQ
binding result (MED8): binds

Binder: B3
binding result (MED27): binds
binding result (MED8): binds

Binder: B5
binding result (MED14): binds
binding result (MED17): binds

Binder: B7
binding result (MED30): binds
